Experimental data as given in US20220047695A1.
Values joined by “and” are separate entries in the source; they are usually repeats but may differ in a detail not shown here. Identical values can stand only once.

Biological target: IgE-GLT1-NP (IgE leader, lumazine synthase, linker, eOD-GT8; self-assembling 60mer nanoparticle) (Aquifex aeolicus lumazine synthase fused to HIV-1 gp120 fragment)
Assay: immunogold TEM of muscle sections from mice immunized with DNA-encoded IgE-GLT1-NP (VRC01 + anti-human 6 nm gold)

## VRC01 antibody (NIH AIDS Reagent)
  visible copies of VRC01 binding: 11 copies and 17 copies
